Measured values as given in patent US8334260B2, “sFRP and peptide motifs that interact with sFRP and methods of their use” (The United States of America as represented by the …, priority 2001, dated 2012).

T1: RANKL (Homo sapiens, UniProt O14788)
T1 construct: For ELISA assays, recombinant soluble RANKL and TRAIL, and antibodies directed against these proteins were obtained from PeproTech; purchased PeproTech (Rocky Hill, N.J.)
T1 sequence (O14788 140-317): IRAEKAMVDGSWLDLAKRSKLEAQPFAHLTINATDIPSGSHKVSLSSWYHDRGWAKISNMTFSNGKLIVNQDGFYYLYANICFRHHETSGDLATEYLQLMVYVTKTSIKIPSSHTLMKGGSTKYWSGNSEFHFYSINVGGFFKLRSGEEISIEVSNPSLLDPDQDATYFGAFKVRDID

T2: RANKL (Mus musculus, UniProt O35235)
T2 construct: For ELISA assays, recombinant soluble RANKL and TRAIL, and antibodies directed against these proteins were obtained from PeproTech; purchased PeproTech (Rocky Hill, N.J.)
T2 sequence (O35235 158-316): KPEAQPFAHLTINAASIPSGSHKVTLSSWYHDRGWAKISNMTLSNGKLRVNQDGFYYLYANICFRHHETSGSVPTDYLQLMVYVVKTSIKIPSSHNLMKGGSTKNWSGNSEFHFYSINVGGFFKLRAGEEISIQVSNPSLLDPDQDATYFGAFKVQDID

B1: bacterially expressed CRD: cysteine-rich domain of sFRP-1, residues 38-166, expressed in bacteria (protein)
chain: FQSDIGPYQSGRFYTKPPQCVDIPADLRLCHNVGYKKMVLPNLLEHETMAEVKQQASSWVPLLNKNCHAGTQVFLCSLFAPVCLDRPIYPCRWLCEAVRDSCEPVMQFFGFYWPEMLKCDKFPEGDVCI
B2: sFRP-2: recombinant mouse sFRP-2 purified from transfected MDCK cells (protein)
chain: LFLFGQPDFSYKRSNCKPIPANLQLCHGIEYQNMRLPNLLGHETMKEVLEQAGAWIPLVMKQCHPDTKKFLCSLFAPVCLDDLDETIQPCHSLCVQVKDRCAPVMSAFGFPWPDMLECDRFPQDNDLCIPLASSDHLLPATEEAPKVCEACKTKNEDDNDIMETLCKNDFALKIKVKEITYINRDTKIILETKSKTIYKLNGVSERDLKKSVLWLKDSLQCTCEEMNDINAPYLVMGQKQGGELVITSVKRWQKGQREFKRISRSIRKLQC
B3: sFRP-1: recombinant human secreted Frizzled-related protein-1 (protein, listed as Homo sapiens)
chain: MGIGRTEGGRRGAALGVLLALGGASGRGLGSEYDYVSFQSDIGPYQSGRFYTKPPQCVDIPADLRLCHNVGYKKMVLPNLLEHETMAEVKQQASSWVPLLNKNCHAGTQVFLCSLFAPVCLDRPIYPCRWLCEAVRDSCEPVMQFFGFYWPEMLKCDKFPEGDVCIAMTPPNATEASKPQGTTVCPPCDNELKSEAIIEHLCASEFALRMKIKEVKKENGDKKIVPKKKKPLKLGPIKKKDLKKLVLYLKNGADCPCHQLDNLSHHFLIMGRKVKSQYLLTAIHKWDKKNKEFKNFMKKMKNHECPTFQSVFK

Legend:
RAW264.7 cells [1] = assay: RANKL-independent (TNFα-dependent) osteoclast formation in RAW264.7+TNFα+TGFβ; format: cell-based
Procedure: The effect of sFRP-1 was assessed upon a RANKL-independent method of osteoclast formation using the monocyte/macrophage cell line RAW264.7 (Quinn et al., Journal of Bone and Mineral Research. 16, 1787-1794, 2001) and was compared with that of osteoprotegerin (FIG. 14).
(§1) The effect of bacterially expressed CRD was assessed in three different cell culture models of osteoclast formation. These were: (1) bone marrow cells+RANKL+M-CSF, (2) the macrophage/monocyte cell line RAW264.7+RANKL, and (3) RAW264.7+TNFα+TGFβ (Horwood et al., Journal of Immunology 166:4915-4921, 2001; Quinn et al., Journal of Bone and Mineral Research. 16, 1787-1794, 2001).

RAW264.7 cells [2] = assay: RANKL-induced osteoclast formation in RAW264.7 cells; format: cell-based; details: RAW264.7+RANKL
Procedure: In some instances, experiments were performed either with adult mouse spleen cells or with RAW264.7 cells treated with M-CSF and RANKL as described in Quinn et al., Endocrinology 139:4424-4427, 1998. Where indicated, these assays were conducted in the presence or absence of splenic T cells. T cell fractions were prepared as described in Horwood et al., Journal of Clinical Investigation 101:595-603, 1998.
as §1

bone marrow cells = assay: Osteoclast formation in bone marrow cells+RANKL+M-CSF; format: cell-based
Procedure: as §1

RANKL [3] = target: T1, RANKL; assay: ELISA of soluble RANKL binding to wells coated with sFRP-1, sFRP-1 derivatives or sFRP-2; details: ELISA, coated wells versus BSA
Procedure: (§2) ELISA experiments were generally performed as previously described (Uren et al., J. Biol. Chem. 275:4374-4382, 2000), with modifications depending on the sFRP binding partner to be tested. Typically, wells were coated with 0.5 or 1 μg of sFRP-1, blocked with BSA (0.2%, 1%, or 4%) and then incubated with putative binding partner overnight at room temperature. When investigating the binding of peptide/AP chimeras, after aspiration of bacterial broths, wells were washed and incubated with p-nitrophenolphosphate (pNPP). Color development was determined at 405 nm with an ELISA reader. For competition experiments, soluble peptides were preincubated with peptide/AP chimeras in bacterial broth for 30 min at room temperature prior to transfer into ELISA wells coated with sFRP-1 or BSA. When testing RANKL binding to sFRP-1, serial dilutions of soluble RANKL were assayed in replicate. Following overnight incubation at room temperature, RANKL solutions were aspirated and bound RANKL was detected by sequential incubations with primary antibody to RANKL, secondary antibody coupled with AP and pNPP. Similar experimental designs were employed when other TNFα family members were examined for binding to sFRPs, and when sFRP-1 derivatives or sFRP-2 were the binding targets for RANKL.
(§3) The possibility that sFRP-1 (SEQ ID NO: 3) and RANKL interact directly with each other was tested using an ELISA assay. […] RANKL was then incubated in these wells and in adjacent wells that had only been treated with BSA.

TRAIL = target: T3, TRAIL (Homo sapiens, UniProt P50591); assay: ELISA of TRAIL binding to sFRP-2; details: ELISA format
T3 construct: For ELISA assays, recombinant soluble RANKL and TRAIL, and antibodies directed against these proteins were obtained from PeproTech; purchased PeproTech (Rocky Hill, N.J.)
Procedure: as §2, with “RANKL. […]” for “RANKL.”

TNFα = TNFα (Homo sapiens, UniProt P01375); assay: ELISA of TNFα binding to sFRP-1; details: ELISA format
Procedure: as §2, with “RANKL. […]” for “RANKL.”

[4] = test system: co-cultures of primary osteoblasts and bone marrow cells; assay: Osteoclastogenesis co-culture of primary osteoblasts and bone marrow cells (TRAP+ cells); format: cell-based, mouse; details: vitamin D3 (10^-8 M) and PGE2 (10^-7 M)
Procedure: Osteoblastic cells were prepared from the calvaria of newborn mice by digestion with 0.1% collagenase (Worthington Biochemical Co., Freefold, […]) and 0.2% dispase (Godo Shusei, Tokyo, Japan). Bone marrow and spleen cells were obtained from adult and from newborn mice, respectively (Udagawa et al., J. Exp. Med. 182: 1461-1468, 1995). Osteoblastic cells were co-cultured with bone marrow or spleen cells as described previously (Udagawa et al., J. Exp. Med. 182: 1461-1468, 1995). In short, primary osteoblastic cells (2×10^4/well) and nucleated spleen cells (1×10^6/well) or marrow cells (5×10^5/well) were co-cultured in 48-well plates (Corning Glass Inc., Corning, N.Y.) with 0.4 mL of α-MEM (GIBCO/BRL, Grand Island, N.Y.) containing 10% fetal bovine serum (Cytosystems, Castle Hill, NSW, Australia) in the presence of test chemicals. Cultures were incubated in quadruplicate and cells were replenished on day 3 with fresh medium. Osteoclast formation was evaluated after culturing for 6-7 days. Adherent cells were fixed and stained for tartrate-resistant acid phosphatase (TRAP), and the number of TRAP-positive osteoclasts was scored as described (Udagawa et al., J. Exp. Med. 182: 1461-1468, 1995). For TRAP staining, adherent cells were fixed with 4% formaldehyde in PBS for 3 minutes. After treatment with ethanol-acetone (50/50, vol/vol) for 1 minute, the well surface was air dried and incubated for 10 minutes at room temperature in an acetate buffer (0.1 M sodium acetate, pH 5.0) containing 0.01% naphthol AS-MX phosphate (Sigma) as a substrate and 0.03% red violet LB salt (Sigma) as a stain for the reaction product in the presence of 50 mM sodium tartrate. TRAP-positive cells appeared dark red, and those with three or more nuclei were scored as multinucleated and considered as osteoclasts. […] CTR expression was determined either by autoradiography with ^125I-salmon calcitonin or by immunohistochemical localization using an array of antibodies we have developed as described by Quinn et al., Bone 25:1-8, 1999.

RANKL [5] = target: T2, RANKL; assay: ELISA of soluble RANKL binding to wells coated with sFRP-1, sFRP-1 derivatives or sFRP-2; details: RANKL variant with amino-terminal sequence beginning with residue 158
Procedure: as §2, §3

Sequence of TNFα (P01375 77-233 limits assumed, species assumed): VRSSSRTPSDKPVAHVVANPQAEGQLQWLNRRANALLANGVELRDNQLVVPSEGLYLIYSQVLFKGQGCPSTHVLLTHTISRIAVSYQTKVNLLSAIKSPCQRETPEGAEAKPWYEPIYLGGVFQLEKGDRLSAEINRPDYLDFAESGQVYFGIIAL
T3 sequence (P50591 39-281 limits assumed, species assumed): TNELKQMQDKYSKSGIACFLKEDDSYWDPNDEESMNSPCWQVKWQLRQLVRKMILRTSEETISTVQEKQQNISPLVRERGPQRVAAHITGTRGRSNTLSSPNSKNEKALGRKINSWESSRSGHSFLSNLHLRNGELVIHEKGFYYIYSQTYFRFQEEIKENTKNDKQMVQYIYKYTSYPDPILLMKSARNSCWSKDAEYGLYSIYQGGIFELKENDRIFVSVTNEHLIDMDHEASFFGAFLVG

Molecule | effect on osteoclast formation (RAW264.7 cells [1]; RAW264.7+TNFα+TGFβ, RANKL-independent) | effect on osteoclast formation (RAW264.7 cells [2]) | effect on osteoclast formation (bone marrow cells) | binding to RANKL (RANKL [3]) | binding to TRAIL (TRAIL) | binding to TNFα (TNFα) | reduction of the number of multinucleated TRAP+ cells ([4]; 300 ng/mL) [%] | reduction of the number of multinucleated TRAP+ cells ([4]; 1.6 ug/mL) [%] | effect on osteoclast formation [4] | effect on TNFα-dependent osteoclast formation (RAW264.7 cells [1]; present during the first three days of culture) | binding to a derivative of RANKL lacking the A-C2 motif (RANKL [5])
B1 | mimicked the action of full-length sFRP-1 and with similar potency | mimicked the action of full-length sFRP-1 and with similar potency | mimicked the action of full-length sFRP-1 and with similar potency | strong |  |  |  |  |  |  | 
B2 |  |  |  | can bind | can bind |  |  |  |  |  | 
B3 |  |  |  | bound specifically |  | can bind | 50 | 95 | dose-dependent inhibitory activity | inhibited | observed binding
